Here are results for 94 variants from the supplement of paper PMC10567573.

B1: LOXL2 (parent)
chain: RLLRFSSQIHNNGQSDFRPKNGRH
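Note: lentivirally expressed fusions sorted by FACS into six bins by GFP to DsRed ratio, PSI derived from sequencing read proportions per bin multiplied by bin number.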

The data set covers variants of B1. In words: protein stability index of a GFP-peptide fusion (GPS, HEK-293T) (PSI 1-6); higher = more stable. As to conditions: c terminus: a fixed tail appended.
RLLRFSSQIHNNEQSDFRPKNGRH [G13E]: the protein stability index came out at 3.31.

As for RLLRFSSQIHNNGRSDFRPKNGRH [Q14R], the protein stability index was 2.5.

On to RLLRFSSQIHNNGISDFRPKNGRH [Q14I], for which the protein stability index came out at 2.11.

Regarding RLLRFSSQIHNNGNSDFRPKNGRH [Q14N], the protein stability index worked out at 2.79.

Take RLLRFSSQIHNNGDSDFRPKNGRH [Q14D]: the protein stability index was found to be 2.84.

Regarding RLLRFSSQIHNNGWSDFRPKNGRH [Q14W], the protein stability index turned out to be 2.06.

Consider RLLRFSSQIHNNGSSDFRPKNGRH [Q14S], for which the protein stability index came out at 3.15.

With RLLRFSSQIHNNGTSDFRPKNGRH [Q14T], the protein stability index was determined as 3.35.

For the variant RLLRFSSQIHNNGFSDFRPKNGRH [Q14F], the protein stability index came out at 1.8.

For the variant RLLRFSSQIHNNGMSDFRPKNGRH [Q14M], the protein stability index was found to be 2.5.

With RLLRFSSQIHNNGASDFRPKNGRH [Q14A], the protein stability index was found to be 2.55.

In the case of RLLRFSSQIHNNGHSDFRPKNGRH [Q14H], the protein stability index was determined as 2.59.

In the case of RLLRFSSQIHNNGPSDFRPKNGRH [Q14P], the protein stability index was determined as 2.81.

As to RLLRFSSQIHNNGLSDFRPKNGRH [Q14L], the protein stability index was determined as 2.19.

On to RLLRFSSQIHNNGCSDFRPKNGRH [Q14C], for which the protein stability index is 2.3.

Regarding RLLRFSSQIHNNGESDFRPKNGRH [Q14E], the protein stability index worked out at 3.26.

RLLRFSSQIHNNGYSDFRPKNGRH [Q14Y]: the protein stability index turned out to be 1.91.

With RLLRFSSQIHNNGVSDFRPKNGRH [Q14V], the protein stability index came out at 2.15.

As for RLLRFSSQIHNNGGSDFRPKNGRH [Q14G], the protein stability index was 2.52.

On to RLLRFSSQIHNNGKSDFRPKNGRH [Q14K], for which the protein stability index turned out to be 2.39.

In the case of RLLRFSSQIHNNGQLDFRPKNGRH [S15L], the protein stability index turned out to be 2.36.

Turning to RLLRFSSQIHNNGQMDFRPKNGRH [S15M], the protein stability index is 2.2.

On to RLLRFSSQIHNNGQKDFRPKNGRH [S15K], for which the protein stability index came out at 2.42.

Consider RLLRFSSQIHNNGQTDFRPKNGRH [S15T], for which the protein stability index was 2.8.

As to RLLRFSSQIHNNGQRDFRPKNGRH [S15R], the protein stability index turned out to be 2.55.

For RLLRFSSQIHNNGQDDFRPKNGRH [S15D], the protein stability index is 3.06.

Regarding RLLRFSSQIHNNGQNDFRPKNGRH [S15N], the protein stability index came out at 2.36.

As for RLLRFSSQIHNNGQWDFRPKNGRH [S15W], the protein stability index is 2.44.

Regarding RLLRFSSQIHNNGQGDFRPKNGRH [S15G], the protein stability index was found to be 3.29.

For the variant RLLRFSSQIHNNGQCDFRPKNGRH [S15C], the protein stability index was 2.65.

Take RLLRFSSQIHNNGQADFRPKNGRH [S15A]: the protein stability index came to 2.61.

For RLLRFSSQIHNNGQFDFRPKNGRH [S15F], the protein stability index stood at 2.28.

RLLRFSSQIHNNGQYDFRPKNGRH [S15Y]: the protein stability index came to 2.83.

Consider RLLRFSSQIHNNGQPDFRPKNGRH [S15P], for which the protein stability index is 3.12.

With RLLRFSSQIHNNGQVDFRPKNGRH [S15V], the protein stability index is 2.44.

In the case of RLLRFSSQIHNNGQIDFRPKNGRH [S15I], the protein stability index amounted to 2.72.

With RLLRFSSQIHNNGQEDFRPKNGRH [S15E], the protein stability index is 3.14.

Turning to RLLRFSSQIHNNGQHDFRPKNGRH [S15H], the protein stability index is 3.05.

Regarding RLLRFSSQIHNNGQQDFRPKNGRH [S15Q], the protein stability index worked out at 2.77.

Turning to RLLRFSSQMHNNGQSDFRPKNGRH [I9M], the protein stability index is 3.07.

Take RLLRFSSQSHNNGQSDFRPKNGRH [I9S]: the protein stability index was found to be 3.04.

RLLRFSSQQHNNGQSDFRPKNGRH [I9Q]: the protein stability index turned out to be 3.14.

On to RLLRFSSQNHNNGQSDFRPKNGRH [I9N], for which the protein stability index turned out to be 3.19.

Turning to RLLRFSSQVHNNGQSDFRPKNGRH [I9V], the protein stability index amounted to 2.99.

RLLRFSSQYHNNGQSDFRPKNGRH [I9Y]: the protein stability index stood at 2.4.

As to RLLRFSSQWHNNGQSDFRPKNGRH [I9W], the protein stability index is 2.74.

On to RLLRFSSQTHNNGQSDFRPKNGRH [I9T], for which the protein stability index amounted to 3.14.

With RLLRFSSQPHNNGQSDFRPKNGRH [I9P], the protein stability index stood at 3.44.

As for RLLRFSSQRHNNGQSDFRPKNGRH [I9R], the protein stability index came out at 3.24.

Regarding RLLRFSSQLHNNGQSDFRPKNGRH [I9L], the protein stability index worked out at 2.12.

Consider RLLRFSSQIHNQGQSDFRPKNGRH [N12Q], for which the protein stability index was determined as 2.57.

Regarding RLLRFSSQIHNKGQSDFRPKNGRH [N12K], the protein stability index is 2.65.

As for RLLRFSSQIHNSGQSDFRPKNGRH [N12S], the protein stability index stood at 3.25.

With RLLRFSSQIHNFGQSDFRPKNGRH [N12F], the protein stability index turned out to be 1.74.

Take RLLRFSSQIHNMGQSDFRPKNGRH [N12M]: the protein stability index was found to be 2.36.

As for RLLRFSSQIHNPGQSDFRPKNGRH [N12P], the protein stability index worked out at 3.15.

Consider RLLRFSSQIHNAGQSDFRPKNGRH [N12A], for which the protein stability index worked out at 2.89.

For the variant RLLRFSSQIHNYGQSDFRPKNGRH [N12Y], the protein stability index was found to be 2.39.

As for RLLRFSSQIHNDGQSDFRPKNGRH [N12D], the protein stability index was determined as 3.69.

RLLRFSSQIHNVGQSDFRPKNGRH [N12V]: the protein stability index turned out to be 2.87.

As for RLLRFSSQIHNEGQSDFRPKNGRH [N12E], the protein stability index is 2.57.

For RLLRFSSQIHNHGQSDFRPKNGRH [N12H], the protein stability index is 2.59.

Turning to RLLRFSSQIHNRGQSDFRPKNGRH [N12R], the protein stability index was determined as 2.52.

Regarding RLLRFSSQIHNIGQSDFRPKNGRH [N12I], the protein stability index is 2.27.

Regarding RLLRFSSQIHNCGQSDFRPKNGRH [N12C], the protein stability index worked out at 2.36.

In the case of RLLRFSSQIHNWGQSDFRPKNGRH [N12W], the protein stability index stood at 2.55.

Turning to RLLRFSSQIHNTGQSDFRPKNGRH [N12T], the protein stability index amounted to 2.72.

With RLLRFSSQIHNGGQSDFRPKNGRH [N12G], the protein stability index was 3.16.

As for RLLRFSSQIHNLGQSDFRPKNGRH [N12L], the protein stability index is 2.15.

RLLRFSSQIHNNGQSDFRAKNGRH [P19A]: the protein stability index worked out at 2.67.

As to RLLRFSSQIHNNGQSDFREKNGRH [P19E], the protein stability index stood at 3.29.

For RLLRFSSQIHNNGQSDFRCKNGRH [P19C], the protein stability index was 2.52.

Turning to RLLRFSSQIHNNGQSDFRGKNGRH [P19G], the protein stability index turned out to be 2.78.

Turning to RLLRFSSQIHNNGQSDFRDKNGRH [P19D], the protein stability index is 2.9.

Regarding RLLRFSSQIHNNGQSDFRFKNGRH [P19F], the protein stability index was found to be 2.13.

Turning to RLLRFSSQIHNNGQSVFRPKNGRH [D16V], the protein stability index is 2.15.

For RLLRFSSQIHNNGQSNFRPKNGRH [D16N], the protein stability index is 2.27.

Regarding RLLRFSSQIHNNGQSHFRPKNGRH [D16H], the protein stability index was 2.35.

In the case of RLLRFSSQIHNNGQSPFRPKNGRH [D16P], the protein stability index amounted to 2.11.

As to RLLRFSSQIHNNGQSAFRPKNGRH [D16A], the protein stability index is 2.36.

On to RLLRFSSQIHNNGQSYFRPKNGRH [D16Y], for which the protein stability index came to 2.06.

With RLLRFSSQIHNNGQSTFRPKNGRH [D16T], the protein stability index was 2.29.

As for RLLRFSSQIHNNGQSCFRPKNGRH [D16C], the protein stability index worked out at 1.73.

Turning to RLLRFSSQIHNNGQSIFRPKNGRH [D16I], the protein stability index amounted to 2.17.

On to RLLRFSSQIHNNGQSWFRPKNGRH [D16W], for which the protein stability index stood at 2.37.

For RLLRFSSQIHNNGQSGFRPKNGRH [D16G], the protein stability index amounted to 2.12.

Turning to RLLRFSSQIHNNGQSLFRPKNGRH [D16L], the protein stability index is 2.7.

For the variant RLLRFSSQIHNNGQSEFRPKNGRH [D16E], the protein stability index came out at 2.72.

For the variant RLLRFSSQIHNNGQSKFRPKNGRH [D16K], the protein stability index is 1.94.

Regarding RLLRFSSQIHNNGQSRFRPKNGRH [D16R], the protein stability index stood at 2.23.

Consider RLLRFSSQIHNNGQSFFRPKNGRH [D16F], for which the protein stability index amounted to 1.97.

In the case of RLLRFSSQIHNNGQSQFRPKNGRH [D16Q], the protein stability index is 2.51.

With RLLRFSSQIHNNGQSSFRPKNGRH [D16S], the protein stability index came out at 2.73.

As to RLLRFSSQIHNNGQSMFRPKNGRH [D16M], the protein stability index stood at 1.77.
